Measured values from patent US20250332297A1, “DLL3-SPECIFIC BINDING CONSTRUCTS AND THEIR USE IN RADIOTHERAPY” (MOLECULAR PARTNERS AG, priority 2024, published 2025).

T1: Human DLL3-NTD (Homo sapiens, UniProt Q9NYJ7)
T1 construct: comprising only the N-Terminal Domain (NTD, residues 27-189); 6xHis (C); made in house; host or cells: Expi293F cells
T1 sequence (Q9NYJ7 27-189): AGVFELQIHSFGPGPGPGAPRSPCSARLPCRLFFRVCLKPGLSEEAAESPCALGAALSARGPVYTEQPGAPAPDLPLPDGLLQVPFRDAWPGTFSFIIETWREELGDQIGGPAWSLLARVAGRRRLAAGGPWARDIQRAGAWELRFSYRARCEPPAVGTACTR

B1: MAM279: Two domain (2D) ankyrin repeat protein: serum albumin-specific domain (SEQ ID NO: 7), PT linker, DLL3-specific domain of MAM093 (protein)
chain: DLGKKLLEAARAGQDDEVRELLKAGADVNAKDYFSHTPLHLAARNGHLKIVEVLLKAGADVNAKDFAGKTPLHLAADAGHLEIVEVLLKAGADVNAQDIFGKTPADIAADAGHEDIAEVLQKAAGSPTPTPTTPTPTPTTPTPTPTGSDLGKKLLAAAAQGQDDEVRELLKAGANVNAKDLFGYTPLHLAAWRGHLEIVEVLLKAGADVNAKDAAGETPLHLAAWFGHLEIVEVLLKAGADVNAQDLQGKTPADLAAKEGHEDIAEVLQKAA
modifications: Ankyrin repeat protein (MAM279)
B2: MAM279-DOTAM: GS-MAM279-tag (SEQ ID NO: 15) conjugated to the chelator DOTAM via C-terminal tag and maleimide connector, no radionuclide (conjugate)
chain: GSDLGKKLLEAARAGQDDEVRELLKAGADVNAKDYFSHTPLHLAARNGHLKIVEVLLKAGADVNAKDFAGKTPLHLAADAGHLEIVEVLLKAGADVNAQDIFGKTPADIAADAGHEDIAEVLQKAAGSPTPTPTTPTPTPTTPTPTPTGSDLGKKLLAAAAQGQDDEVRELLKAGANVNAKDLFGYTPLHLAAWRGHLEIVEVLLKAGADVNAKDAAGETPLHLAAWFGHLEIVEVLLKAGADVNAQDLQGKTPADLAAKEGHEDIAEVLQKAAGSGSC
modifications: DOTAM chelator via maleimide on C-terminal tag; Ankyrin repeat protein with tag (GS-MAM279-tag)
B3: Rova: Rova antibody, DLL3-binding benchmark antibody used as positive control and comparison (antibody, chains of the INN, looked up, V domains shown)
VH: QVQLVQSGAEVKKPGASVKVSCKASGYTFTNYGMNWVRQAPGQGLEWMGWINTYTGEPTYADDFKGRVTMTTDTSTSTAYMELRSLRSDDTAVYYCARIGDSSPSDYWGQGTLVTVSS
VL: EIVMTQSPATLSVSPGERATLSCKASQSVSNDVVWYQQKPGQAPRLLIYYASNRYTGIPARFSGSGSGTEFTLTISSLQSEDFAVYYCQQDYTSPWTFGQGTKLEIK

Tests used:
Human DLL3-NTD = target: T1, Human DLL3-NTD; experiment: SPR binding to human DLL3-NTD (Example 11); details: immobilized biotinylated target, 1:1 Langmuir, Table 14
Description: (§1) The truncated human DLL3 construct, comprising only the N-Terminal Domain (NTD, residues 27-189), was designed with a C-terminal 6×His and Avi-tag. Co-expression was carried in Expi293F cells and purification was performed via Ni-NTA affinity chromatography followed by SEC. The final material was monomeric on size exclusion and stored in PBS pH 7.4 at the final concentration of 0.26 mg/ml.
(§2) The binding of 2D ankyrin repeat protein MAM279 as well as of MAM279 conjugated to the chelator DOTAM (the conjugation was performed as described in Example 3) to different target proteins was analyzed by Surface Plasmon Resonance (SPR). Specifically, the proteins analyzed were (i) MAM279 (SEQ ID NO: 11), with a Glycine-Serine (GS) at its N-terminal end and an N-terminal His-tag (SEQ ID NO: 19); and (ii) MAM279 (SEQ ID NO: 11), with a Glycine-Serine (GS) at its N-terminal end and a tag (SEQ ID NO: 10) at its C-terminal end (resulting in GS-MAM279-tag (SEQ ID NO: 15)), conjugated to the chelator DOTAM as described in Example 3.
(§3) A surface plasmon resonance (SPR) assay was used to determine the binding kinetics of the two proteins (i.e. MAM279 with and without conjugation to chelator) to different targets: the Extra-Cellular Domain (ECD) of human DLL3, the ECD of cynomolgus monkey DLL3, the N-Terminal Domain (NTD) only of human DLL3, and the NTD dog DLL3. The data were generated using BioRad ProteOn instrument in SPR running buffer (PBS, pH 7.4 containing 0.005% Tween 20©). […] The chip was coated with biotinylated target to reach a signal intensity of 1516 RU (human ECD), 257 RU (human NTD), 1500 RU (cyno ECD) and 228 RU (dog NTD). All analytes (various concentrations in 3-fold dilutions ranging from 500-6.17 nM) were injected in succession for 240 s (100 μl/min) and dissociation was recorded for 10800 s (100 μl/min). Each injection was followed by a regeneration step with 16 mM H3PO4 for 18 s. […] The obtained SPR traces were used to determine on-rate and off-rate interaction parameters.

Cyno DLL3-ECD = experiment: SPR binding to cyno DLL3-ECD (Example 11); parameters: species or system cynomolgus monkey
Text: The DLL3 target protein from cynomolgus macaque (cyno) was produced similarly to the human target protein. It consisted of the extracellular domain of the cyno DLL3 protein (XP_005589253.1, Gene ID:102115332, residues 27 to 466, purchased from Evitria) linked via an Avi-tag (for site-directed biotinylation), followed by a 3C protease recognition site, to a Fc knob into hole. The target protein was expressed in CHO cells (Chinese hamster ovary cells) by Evitria and purified by a protein A derivative-based affinity chromatography followed by preparative size exclusion chromatography (SEC). The material was up-concentrated in PBS pH 7.4 to 0.53 mg/ml and in vitro biotinylated using recombinant BirA. The final material was monomeric on size exclusion and stored in PBS pH 7.4 at the final concentration of 0.26 mg/ml.
as §2, §3

Dog DLL3-NTD = experiment: SPR binding to dog DLL3-NTD (Example 11)
Description: as §1, with “dog” for “human”, “designed similarly to the human truncated target protein,” for “designed”, “˜0.1-0.2” for “0.26”
as §2, §3

[1] = test system: SHP-77 lung carcinoma cells; experiment: Internalization in SHP-77 cells; assay type: cell-based, human; details: AF488 label with anti-AF488 quencher, 37° C.
Description: (§4) Studies were performed to determine whether a half-life extended DLL3-specific ankyrin repeat protein, as described herein, is internalized upon binding to cells expressing DLL3 on their surface. The specific ankyrin repeat protein tested was MAM279 (SEQ ID NO: 11) (with a Glycine-Serine (GS) at its N-terminal end). […] As a comparison, internalization was also tested for Rova antibody. Internalization was investigated on different cell types expressing DLL3 on their surface, namely SHP-77 lung carcinoma cells, NCI-H82 lung carcinoma cells, and hDLL3-expressing MC38 (MC38-hDLL3) colon carcinoma cells. In brief, DARPin and antibody were pre-incubated and labelled with fluorescently labelled detection antibodies (Fab-AF488) and added to 5×10^4 cells/well in a 96-well plate (100 nM DARPin, 10 nM antibody control) and incubated for 1h on ice. Cells were washed once with PBS and then incubated for different timepoints (0 min, 15 min, 30 min, 1 h and/or 4 h) at 37° C. in PBS with 2% FCS. […] Raw fcs files were exported and analyzed using FlowJo software. MFI values of live AF488-positive cells were exported from FlowJo and plotted using GraphPad Prism software. % internalization was determined by normalizing to non-binding control DARPin (for MAM279) or non-binding isotype control IgG (for Rova). […]

[2] = test system: NCI-H82 lung carcinoma cells; experiment: Internalization in NCI-H82 cells; assay type: cell-based, human; details: AF488 label with anti-AF488 quencher, 37° C.
Description: as §4

[3] = test system: hDLL3-expressing MC38 (MC38-hDLL3) colon carcinoma cells; experiment: Internalization in MC38-hDLL3 cells; assay type: cell-based; details: AF488 label with anti-AF488 quencher, 37° C.
Description: as §4

[4] = SPR, immobilized biotinylated target, 1:1 Langmuir, Table 15

Row | Molecule | Kd (Human DLL3-NTD) | Koff Human DLL3-NTD (Human DLL3-NTD) | Kon Human DLL3-NTD (Human DLL3-NTD) | fold lower affinity (higher KD) for cynomolgus monkey DLL3-ECD than for human DLL3-ECD (Cyno DLL3-ECD; SPR KD comparison) | Kd (Cyno DLL3-ECD; [4]) | Koff Cyno DLL3-ECD (Cyno DLL3-ECD; [4]) | Kon Cyno DLL3-ECD (Cyno DLL3-ECD; [4]) | fold lower affinity for dog DLL3-NTD than for human DLL3-ECD (Dog DLL3-NTD; SPR KD comparison) | Kd (Dog DLL3-NTD; [4]) | Koff Dog DLL3-NTD (Dog DLL3-NTD; [4]) | Kon Dog DLL3-NTD (Dog DLL3-NTD; [4]) | internalization [1] | internalization [2] | internalization [3]
1 | B1 | 0.263 nM | 1.54e-05 s⁻¹ | 58700 M⁻¹ s⁻¹ | about 100 fold | 22 nM | 0.000978 s⁻¹ | 44500 M⁻¹ s⁻¹ | about 10 fold | 1.2 nM | 5.58e-05 s⁻¹ | 46400 M⁻¹ s⁻¹ | similarly internalized | similarly internalized | similarly internalized
2 | B2 |  | 1.99e-05 s⁻¹ | 50400 M⁻¹ s⁻¹ |  |  | 0.00125 s⁻¹ | 36000 M⁻¹ s⁻¹ |  |  | 4.86e-05 s⁻¹ | 33400 M⁻¹ s⁻¹ |  |  | 
3 | B3 |  |  |  |  |  |  |  |  |  |  |  | internalization | internalization | internalization
